Experimental findings from patent US20220332804A1 (CSL INNOVATION, published 2022) are described below.

What all share (experiment): SPR, KD relative to WT C2;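 note: biacore SPR at 37 °C, anti-C2 mAbs captured via immobilised goat anti-human IgG, C2 alanine or serine surface mutants as analytes, 1:1 model fitted, double-referenced sensograms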
Background: Surface plasmon resonance follows binding to a sensor surface in real time, without labels.

One experiment has as its target T1, human C2 N325A (human, UniProt P06681 21-752).
T1 sequence: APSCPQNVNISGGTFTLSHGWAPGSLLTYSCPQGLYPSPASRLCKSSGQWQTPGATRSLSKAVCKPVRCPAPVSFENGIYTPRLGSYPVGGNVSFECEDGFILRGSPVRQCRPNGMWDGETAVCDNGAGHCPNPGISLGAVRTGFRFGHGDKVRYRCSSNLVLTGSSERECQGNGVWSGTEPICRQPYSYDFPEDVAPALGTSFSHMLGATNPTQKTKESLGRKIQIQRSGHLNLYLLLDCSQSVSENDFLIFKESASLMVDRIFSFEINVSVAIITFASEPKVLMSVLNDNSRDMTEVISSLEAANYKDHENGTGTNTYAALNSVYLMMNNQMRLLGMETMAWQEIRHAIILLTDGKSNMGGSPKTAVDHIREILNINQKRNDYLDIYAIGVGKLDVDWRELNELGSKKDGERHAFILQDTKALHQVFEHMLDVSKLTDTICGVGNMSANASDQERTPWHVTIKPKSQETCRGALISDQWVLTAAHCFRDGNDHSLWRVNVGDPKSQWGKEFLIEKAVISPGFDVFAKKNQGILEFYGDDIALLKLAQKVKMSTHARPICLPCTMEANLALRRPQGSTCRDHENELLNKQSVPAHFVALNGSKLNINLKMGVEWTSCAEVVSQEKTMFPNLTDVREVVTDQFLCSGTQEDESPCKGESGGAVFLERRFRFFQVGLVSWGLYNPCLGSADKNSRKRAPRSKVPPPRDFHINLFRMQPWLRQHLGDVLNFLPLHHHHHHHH

In another experiment the target is T2, human C2 K485A (human, UniProt P06681 21-752).
T2 sequence: T1 sequence with A305N, K465A

The target of a further experiment is T3, human C2 T483A (human, UniProt P06681 21-752).
T3 sequence: T1 sequence with A305N, T463A

The next experiment deals with T4, human C2 K274A (human, UniProt P06681 21-752).
T4 sequence: T1 sequence with K254A, A305N

Substitutions are numbered along the chain they refer to.

B1: RF16-226 (antibody, human IgG4 S228P, lambda)
heavy: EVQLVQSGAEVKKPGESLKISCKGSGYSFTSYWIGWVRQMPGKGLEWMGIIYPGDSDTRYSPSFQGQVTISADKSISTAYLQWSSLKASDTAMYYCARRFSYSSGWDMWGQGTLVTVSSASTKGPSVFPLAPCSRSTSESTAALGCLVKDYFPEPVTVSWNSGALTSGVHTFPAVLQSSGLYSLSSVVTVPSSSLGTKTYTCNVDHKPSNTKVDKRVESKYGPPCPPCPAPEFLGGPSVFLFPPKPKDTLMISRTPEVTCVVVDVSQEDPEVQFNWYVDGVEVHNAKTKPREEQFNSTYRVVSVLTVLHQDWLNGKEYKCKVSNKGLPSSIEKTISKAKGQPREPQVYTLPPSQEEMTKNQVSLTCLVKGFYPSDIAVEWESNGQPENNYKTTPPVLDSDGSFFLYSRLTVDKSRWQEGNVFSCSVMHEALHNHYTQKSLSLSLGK
light: SYELTQPPSVSVSPGQTARITCSGDALTSKYVAWYQQKSGLAPLLVIYEDTRRPSGIPAKFSGSSSGSVATLTISGAHGDDEADYYCYSTDASGHQRVFGGGTKLTVLSQPKAAPSVTLFPPSSEELQANKATLVCLISDFYPGAVTVAWKADGSPVKAGVETTKPSKQSNNKYAASSYLSLTPEQWKSHRSYSCQVTHEGSTVEKTVAPTECS
notes: pH-dependent anti-C2 antibody from a phage display library; also called WT
With B1, the Fold diff with human C2 N325A stood at 5 fold; with human C2 K485A, 1 fold; with human C2 T483A it was 1 fold; with human C2 K274A, 29 fold.
